Columns and labels:
[1] = molecular target: the molecule itself; test: AUC; sedimentation velocity, 0.15 mg/mL SP-BN in 5 mM Tris-HCl pH 7.0, 150 mM NaCl, 20°C, 48,000 rpm
[2] = molecular target: the molecule itself; test: AUC; sedimentation velocity, 0.15 mg/mL SP-BN in 5 mM Tris-HCl pH 7.0, 500 mM NaCl, 20°C, 48,000 rpm; 35% of the loaded protein detected
[3] = molecular target: the molecule itself; test: cross-linking; 0.26 mg/mL SP-BN in 20 mM Tris-HCl, 500 mM NaCl pH 7.0, 0.08% (v/v) glutaraldehyde for 20 s and 120 s at 20°C; SDS-PAGE and immunoblot
[4] = molecular target: the molecule itself; test: differential scanning calorimetry; 0.3 mg/mL SP-BN in 5 mM Tris-HCl pH 7, 500 mM NaCl, 20-120°C at 60°C/h; second transition fitted to the Non Two-State model with two peaks; ratio of van't Hoff to calorimetric enthalpy

B1: NH2-terminal propeptide of the precursor of pulmonary surfactant protein SP-B (recombinant human SP-BN) (domain or fragment, UniProt P07988 24-200, looked up)
chain: AWTTSSLACAQGPEFWCQSLEQALQCRALGHCLQEVWGHVGADDLCQECEDIVHILNKMAKEAIFQDTMRKFLEQECNVLPLKLLMPQCNQVLDDYFPLVIDYFQNQTDSNGICMHLGLCKSRQPEPEQEPGMSDPLPKPLRDPLPDPLLDKLVLPVLPGALQARPGPHTQDLSEQQ
notes: 177 amino acids, 19,902 Da from the composition; Not glycosylated (made in bacteria); also called N-terminal propeptide of proSP-B; the propeptide; source: E. coli, expressed as fusion MBP-SP-BN, purified after cleaving the fusion with factor Xa
stoichiometry N [1]: 2 | stoichiometry N [2]: 6 | stoichiometry N [3]: 3 | stoichiometry N [4]: ~4
